B1: Gamma-crystallin D, residues 90 to 170; numbered along this chain, P07320 (parent)
chain: IRLYEREDYRGQMIEFTEDCSCLQDRFRFNEIHSLNVLEGSWVLYELSNYRGRQYLLMPGDYRRYQDWGATNARVGSLRRV

Variants of: B1
Assay: abundance fitness (aPCA) (normalised: wild type 0, dead -1); higher = more abundant; growth selection in yeast, the domain comes from the species named
Details: Homo sapiens

Abundance fitness, by site and new letter:
I14: V -0.001; T -0.018; P -0.825; C -0.004; S 0.107; M 0.086; G -0.092; W -0.09; Y -0.018; D 0.08; A -0.401; F 0.019; L -0.106; N 0.056; K -0.092
G11: A 0.035; P -0.521; S -0.1; W -1.01; N -0.094
Q24: W -0.073; R 0.013; G 0.01; P 0.02; E 0.029; D -0.051; C -0.025; S -0.008; K 0.068; Y -0.045; H 0.08; I -0.038; N -0.022; A -0.021; T -0.08; V -0.086; M 0.167
T17: C 0.007; V 0.005; S -0.022; Q -0.11; G 0.016; P 0.152; E -0.089; Y 0.004; L 0.001; I 0.073; N -0.001; M -0.172; A -0.177; D -0.012; R 0.074; W -0.068; F 0.08; K -0.061
Y9: S 0.175; I 0.112; Q 0.07; N 0.217; R 0.204; V -0.396; K 0.001; W 0.036; G 0.06; M 0.064; T 0.179; E 0.082; H 0.19; P -0.529; F 0.104; D -0.076; C 0.194
R10: D -0.118; I 0.074; N 0.077; T -0.034; L -0.064; G -0.004; A -0.093; E 0.059; F 0.025; Q -0.069; W -0.027; P -1.07; Y -0.087; V -0.005; C 0.046; M -0.026; K 0.226; S -0.138
D19: C -0.065; Q 0.041; Y -0.155; M -0.06; S -0.115; R -0.129; H -0.033; E 0.035; A -0.116; N -0.058; T 0.039; W -0.108; I -0.249; V -0.087; L -0.169; F 0.004; K -0.144; P -0.003
S21: Q -0.246; H -0.088; K -0.045; C -0.054; T -0.047; V -0.044; P -0.215; G -0.05; I 0.004; M -0.171; W -0.099; A -0.023; R -0.03; D 0.044; N -0.183; F 0.017; E 0.069; Y 0.069
M13: C -0.176; A 0.08; E -0.056; H 0.001; I -0.021; R -0.075; L 0.002; W -0.127; N -0.042; T -0.122; Y -0.524; V 0.04; S 0.061; F 0.009; Q -0.115; D 0.034; G 0.017
F16: H 0.052; I -0.077; S 0.035; Q 0.033; Y -0.606; D -0.163; G 0.035; W 0.143; K -0.118; V 0.034; N 0.095; A -0.1; L 0.08; M -0.115; E -0.018; T -0.089; C -0.029; R 0.082; P 0.109
E18: I -0.074; N 0.11; T -0.035; L 0.001; A -0.018; G -0.088; D -0.08; M -0.005; P -0.584; H 0.027; R 0.048; V -0.004; S 0.04; Q 0.054; W -0.142; C 0.05
R6: T 0.005; P -1.02; Q -0.066; Y -0.092; V -0.035; S -0.01
C22: R -0.044; Q -0.023; H -0.07; L -0.049; S 0.015; N -0.149; K -0.134; V -0.08; A 0.002; W -0.107; D 0.089; M 0.091; Y -0.009; G 0.019; F 0.113; P -0.104; E 0.056
D25: M -0.149; I -0.052; K 0.103; E 0.088; G 0.041; Y -0.17; R -0.045; A 0.005; P 0.073; S -0.127; T -0.168; W -0.087; F -0.036; V -0.051; L 0.06; N -0.197; C -0.308
R26: D -0.053; H 0.008; Y 0.095; A -0.027; M -0.007; F -0.292; G -0.018; E 0.047; Q 0.032; C 0.091; P 0.071; V -0.006; N 0.039; S 0.05; T -0.048; W 0.061
C20: E 0.135; I -0.047; L -0.01; P -0.486; K -0.096; D 0.108; H -0.104; N 0.042; G 0.052; S -0.011; M -0.04; R 0.069; W 0.056; T 0.015; Y 0.3; V -0.061
D8: E 0.015; C 0.05; T -0.016; R 0.025; V -0.049; S -0.03; W -0.153; M -0.006; H -0.086; L 0.025; I -0.152; P 0.026; F 0.085; N -0.342; G -0.004; Q 0.097; K 0.111; A -0.079
Q12: E -0.105; A -0.055; I -0.061; G 0.04; Y 0.007; P 0; W -0.176; M 0.062; D -0.019; K 0.052; F -0.192; H 0.021; V 0.1; N 0.102; S -0.008; T -0.041; C -0.352; L -0.173
F27: A -0.056; C -0.031
L23: T 0.004; V -0.043; F -0.027; R -0.332; N -0.055; W -0.215; C -0.023; K -0.033; I -0.098; G -0.24; P -0.029; S 0.14; A 0.086; H -0.833; Q -0.217
E15: R -0.084; W -0.093; I -0.034; Y -0.135; P 0.038; C 0.008; L -0.032; N 0.206; V -0.118; D -0.166; A -0.065; G -0.08; F 0.015; T -0.027; S -0.11; M -0.013; K 0.204
E7: G -0.095; M -0.029; C -0.333; R -0.043; S 0.069; Q -0.016; A 0.001; W 0.045; Y -0.498; F -0.148; K 0.103; I -0.107; L -0.031; V -0.04
